Experimental data: patent publication US11965039B2, “Compstatin analogues and their medical uses” (priority 2018, dated 2024)
Positions of bridges follow the written chain, without caps; N, C: chain ends. Non-standard residues stand in square brackets, D forms with d. Sar = CNCC(=O)O

How the values were obtained:
[1] = target: T1, Human C3 (Complement tech cat #A113c) (human, UniProt P01024 23-1663); assay: SPR (Biacore T200), human C3 immobilised, peptide injected, 1:1 fit
T1 construct: Purified protein immobilised by amine coupling in the SPR assay; in the haemolysis assay it is the C3 of diluted human serum; Native C3 consists of a beta and an alpha chain cut from one precursor; also called C3 protein
Method in brief: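 Human C3 amine-coupled on CM5 chips to about 3000 RU. Multi-cycle runs on Biacore T200 at 25° C: peptides at 6-8 rising concentrations, 60-120 s at 30 µL/min in 10 mM Tris pH 7.4, 150 mM NaCl, 0.05% Tween20, dissociation up to 10 min; 3 M MgCl2 regeneration. Kd derived.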

[2] = target: T1, Human C3 (Complement tech cat #A113c); assay: cell-based or functional assay
[3] = target: T1, Human C3 (Complement tech cat #A113c); assay: cell-based or functional assay; remark: listed apart in the source

T1 sequence (P01024 23-1663 limits assumed): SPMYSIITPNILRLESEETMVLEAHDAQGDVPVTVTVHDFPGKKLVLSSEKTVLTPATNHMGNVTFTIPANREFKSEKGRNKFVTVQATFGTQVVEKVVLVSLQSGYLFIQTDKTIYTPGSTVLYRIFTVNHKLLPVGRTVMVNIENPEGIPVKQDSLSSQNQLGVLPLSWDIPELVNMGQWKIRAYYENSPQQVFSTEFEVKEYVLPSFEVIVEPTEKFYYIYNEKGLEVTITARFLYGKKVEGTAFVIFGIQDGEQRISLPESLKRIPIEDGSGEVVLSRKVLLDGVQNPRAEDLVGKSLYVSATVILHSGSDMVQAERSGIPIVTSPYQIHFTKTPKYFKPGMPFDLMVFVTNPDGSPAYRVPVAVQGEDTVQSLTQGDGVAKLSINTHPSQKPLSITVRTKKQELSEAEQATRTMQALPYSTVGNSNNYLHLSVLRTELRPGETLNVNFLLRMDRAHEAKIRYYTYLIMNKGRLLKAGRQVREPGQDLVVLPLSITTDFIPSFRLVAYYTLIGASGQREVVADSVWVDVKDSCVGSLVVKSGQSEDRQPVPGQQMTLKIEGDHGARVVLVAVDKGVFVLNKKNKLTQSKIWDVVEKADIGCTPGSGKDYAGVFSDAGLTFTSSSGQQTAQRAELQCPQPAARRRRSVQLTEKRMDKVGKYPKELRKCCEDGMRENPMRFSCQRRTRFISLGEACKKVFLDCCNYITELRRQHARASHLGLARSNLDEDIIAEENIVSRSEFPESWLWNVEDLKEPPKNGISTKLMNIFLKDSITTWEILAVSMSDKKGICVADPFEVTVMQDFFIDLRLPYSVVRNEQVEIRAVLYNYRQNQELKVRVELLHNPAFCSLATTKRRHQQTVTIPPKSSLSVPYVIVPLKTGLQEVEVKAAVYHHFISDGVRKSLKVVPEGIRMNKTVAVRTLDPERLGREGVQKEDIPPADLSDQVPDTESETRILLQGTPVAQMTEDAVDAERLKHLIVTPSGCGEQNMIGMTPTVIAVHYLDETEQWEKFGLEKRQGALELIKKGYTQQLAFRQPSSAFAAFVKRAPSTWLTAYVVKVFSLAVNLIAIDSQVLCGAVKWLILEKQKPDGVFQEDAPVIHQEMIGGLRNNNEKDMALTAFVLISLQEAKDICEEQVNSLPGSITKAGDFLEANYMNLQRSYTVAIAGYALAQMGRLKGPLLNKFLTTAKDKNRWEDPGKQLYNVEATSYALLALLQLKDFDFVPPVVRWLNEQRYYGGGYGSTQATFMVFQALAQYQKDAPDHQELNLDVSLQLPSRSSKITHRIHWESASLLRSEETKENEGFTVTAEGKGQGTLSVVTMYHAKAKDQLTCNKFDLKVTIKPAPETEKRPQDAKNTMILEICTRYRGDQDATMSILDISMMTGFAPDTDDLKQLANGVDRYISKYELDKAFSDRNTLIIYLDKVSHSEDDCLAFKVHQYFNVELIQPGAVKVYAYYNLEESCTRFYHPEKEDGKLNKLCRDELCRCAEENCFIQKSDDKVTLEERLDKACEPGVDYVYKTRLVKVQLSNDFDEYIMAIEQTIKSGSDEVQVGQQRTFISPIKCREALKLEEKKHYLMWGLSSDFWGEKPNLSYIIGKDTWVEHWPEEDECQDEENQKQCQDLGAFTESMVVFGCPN

B1: Compound 28 (peptide)
peptide: Ac-EGSAICIWQDWGEHRC[Sar]E-NH2
modifications: disulfide 6-16
SMILES: CC[C@H](C)[C@H](NC(=O)[C@H](C)NC(=O)[C@H](CO)NC(=O)CNC(=O)[C@H](CCC(=O)O)NC(C)=O)C(=O)N[C@H]1CSSC[C@@H](C(=O)N(C)CC(=O)N[C@@H](CCC(=O)O)C(N)=O)NC(=O)[C@H](CCCNC(=N)N)NC(=O)[C@H](Cc2c[nH]cn2)NC(=O)[C@H](CCC(=O)O)NC(=O)CNC(=O)[C@H](Cc2c[nH]c3ccccc23)NC(=O)[C@H](CC(=O)O)NC(=O)[C@H](CCC(N)=O)NC(=O)[C@H](Cc2c[nH]c3ccccc23)NC(=O)[C@H]([C@@H](C)CC)NC1=O
Kd [1]: 44 nM
CP hemolysis IC50 [2]: 88 nM
inhibition of hemolysis IC50 [3]: < 100 nM

B2: Compound 6 (peptide)
peptide: Ac-ICIWQDWGSHRCT-NH2
modifications: disulfide 2-12
SMILES: CC[C@H](C)[C@H](NC(C)=O)C(=O)N[C@H]1CSSC[C@@H](C(=O)N[C@H](C(N)=O)[C@@H](C)O)NC(=O)[C@H](CCCNC(=N)N)NC(=O)[C@H](Cc2c[nH]cn2)NC(=O)[C@H](CO)NC(=O)CNC(=O)[C@H](Cc2c[nH]c3ccccc23)NC(=O)[C@H](CC(=O)O)NC(=O)[C@H](CCC(N)=O)NC(=O)[C@H](Cc2c[nH]c3ccccc23)NC(=O)[C@H]([C@@H](C)CC)NC1=O
CP hemolysis IC50 [2]: 140 nM
inhibition of hemolysis IC50 [3]: < 250 nM

B3: Compound 20 (peptide)
peptide: Ac-ICIWQDWGEHSCT-NH2
modifications: disulfide 2-12
SMILES: CC[C@H](C)[C@H](NC(C)=O)C(=O)N[C@H]1CSSC[C@@H](C(=O)N[C@H](C(N)=O)[C@@H](C)O)NC(=O)[C@H](CO)NC(=O)[C@H](Cc2c[nH]cn2)NC(=O)[C@H](CCC(=O)O)NC(=O)CNC(=O)[C@H](Cc2c[nH]c3ccccc23)NC(=O)[C@H](CC(=O)O)NC(=O)[C@H](CCC(N)=O)NC(=O)[C@H](Cc2c[nH]c3ccccc23)NC(=O)[C@H]([C@@H](C)CC)NC1=O
Kd [1]: 37 nM
CP hemolysis IC50 [2]: 59 nM
inhibition of hemolysis IC50 [3]: < 100 nM

B4: Compound 3 (peptide)
peptide: Ac-ESSAICIWQDWGEHRCT-NH2
modifications: disulfide 6-16
SMILES: CC[C@H](C)[C@H](NC(=O)[C@H](C)NC(=O)[C@H](CO)NC(=O)[C@H](CO)NC(=O)[C@H](CCC(=O)O)NC(C)=O)C(=O)N[C@H]1CSSC[C@@H](C(=O)N[C@H](C(N)=O)[C@@H](C)O)NC(=O)[C@H](CCCNC(=N)N)NC(=O)[C@H](Cc2c[nH]cn2)NC(=O)[C@H](CCC(=O)O)NC(=O)CNC(=O)[C@H](Cc2c[nH]c3ccccc23)NC(=O)[C@H](CC(=O)O)NC(=O)[C@H](CCC(N)=O)NC(=O)[C@H](Cc2c[nH]c3ccccc23)NC(=O)[C@H]([C@@H](C)CC)NC1=O
CP hemolysis IC50 [2]: 69 nM
inhibition of hemolysis IC50 [3]: < 100 nM

B5: Compound 19 (peptide)
peptide: Ac-ICIWQDWGAHSCT-NH2
modifications: disulfide 2-12
SMILES: CC[C@H](C)[C@H](NC(C)=O)C(=O)N[C@H]1CSSC[C@@H](C(=O)N[C@H](C(N)=O)[C@@H](C)O)NC(=O)[C@H](CO)NC(=O)[C@H](Cc2c[nH]cn2)NC(=O)[C@H](C)NC(=O)CNC(=O)[C@H](Cc2c[nH]c3ccccc23)NC(=O)[C@H](CC(=O)O)NC(=O)[C@H](CCC(N)=O)NC(=O)[C@H](Cc2c[nH]c3ccccc23)NC(=O)[C@H]([C@@H](C)CC)NC1=O
CP hemolysis IC50 [2]: 140 nM
inhibition of hemolysis IC50 [3]: < 250 nM
